Patent US20100260668A1 (published 2010)

T1: PlGF (UniProt P49763-2 21-149, limits assumed)
T1 construct: bought antigen coated on the ELISA plate; also called Placental GF
T1 sequence (looked up): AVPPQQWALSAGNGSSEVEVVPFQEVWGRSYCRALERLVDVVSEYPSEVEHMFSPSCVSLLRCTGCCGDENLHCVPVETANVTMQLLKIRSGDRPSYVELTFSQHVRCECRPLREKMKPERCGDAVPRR


Tests used:
[1] = target: T1, PlGF; experiment: direct bind ELISA, C-terminal VD
[2] = target: T2, VEGF (UniProt P15692 27-191, limits assumed); experiment: direct bind ELISA, N-terminal VD
T2 construct: bought antigen coated on the ELISA plate
T2 sequence (P15692 other isoform, or with tags, fused parts or gaps limits assumed): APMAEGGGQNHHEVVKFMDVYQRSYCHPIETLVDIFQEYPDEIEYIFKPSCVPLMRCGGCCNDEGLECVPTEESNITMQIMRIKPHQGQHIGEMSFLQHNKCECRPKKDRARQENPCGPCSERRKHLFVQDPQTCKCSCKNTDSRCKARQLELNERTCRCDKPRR

[3] = target: T1, PlGF; experiment: direct bind ELISA, N-terminal VD

Row | EC50 [1] | EC50 [2] | EC50 [3] | Binder
1 | 7.03 nM | 25.8 nM |  | DVD546 (bispecific antibody, human IgG1, kappa, outer AB071 (VEGF), inner AB074 (PlGF); HC linker short, LC linker short; also called DVD-Ig DVD546) heavy: not shown light: DIQMTQSPSSLSASVGDRVTITCRASQVIRRSLAWYQQKPGKAPKLLIYAASNLASGVPSRFSGSGSGTDFTLTISSLQPEDFATYYCQQSNTSPLTFGQGTKVEIKRTVAAPAIQMTQSSSSFSVSLGDRVTITCKASEDIYNRFAWYQQKPGNAPRLLISGAASLEAGVPSRFSGSGSGQDYTLSITSLQTEDVATYYCQQYWSTPWTFGGGTKLEIKRTVAAPSVFIFPPSDEQLKSGTASVVCLLNNFYPREAKVQWKVDNALQSGNSQESVTEQDSKDSTYSLSSTLTLSKADYEKHKVYACEVTHQGLSSPVTKSFNRGEC
2 | 1.12 nM | 17.7 nM |  | DVD562 (bispecific antibody, human IgG1, kappa, outer AB071 (VEGF), inner AB074 (PlGF); HC linker long, LC linker short; also called DVD-Ig DVD562) heavy: not shown light: DIQMTQSPSSLSASVGDRVTITCRASQVIRRSLAWYQQKPGKAPKLLIYAASNLASGVPSRFSGSGSGTDFTLTISSLQPEDFATYYCQQSNTSPLTFGQGTKVEIKRTVAAPAIQMTQSSSSFSVSLGDRVTITCKASEDIYNRFAWYQQKPGNAPRLLISGAASLEAGVPSRFSGSGSGQDYTLSITSLQTEDVATYYCQQYWSTPWTFGGGTKLEIKRTVAAPSVFIFPPSDEQLKSGTASVVCLLNNFYPREAKVQWKVDNALQSGNSQESVTEQDSKDSTYSLSSTLTLSKADYEKHKVYACEVTHQGLSSPVTKSFNRGEC
3 | 13 nM | 0.8 nM |  | DVD542 (bispecific antibody, human IgG1, kappa, HC linker short, LC linker short; also called DVD-Ig DVD542) heavy: not shown light: DIQMTQSPSSLSASVGDRVTITCSASQDISNYLNWYQQKPGKAPKVLIYFTSSLHSGVPSRFSGSGSGTDFTLTISSLQPEDFATYYCQQYSTVPWTFGQGTKVEIKRTVAAPAIQMTQSSSSFSVSLGDRVTITCKASEDIYNRFAWYQQKPGNAPRLLISGAASLEAGVPSRFSGSGSGQDYTLSITSLQTEDVATYYCQQYWSTPWTFGGGTKLEIKRTVAAPSVFIFPPSDEQLKSGTASVVCLLNNFYPREAKVQWKVDNALQSGNSQESVTEQDSKDSTYSLSSTLTLSKADYEKHKVYACEVTHQGLSSPVTKSFNRGEC
4 | 3.37 nM | 1.96 nM |  | DVD558 (bispecific antibody, human IgG1, kappa, HC linker long, LC linker short; also called DVD-Ig DVD558) heavy: not shown light: DIQMTQSPSSLSASVGDRVTITCSASQDISNYLNWYQQKPGKAPKVLIYFTSSLHSGVPSRFSGSGSGTDFTLTISSLQPEDFATYYCQQYSTVPWTFGQGTKVEIKRTVAAPAIQMTQSSSSFSVSLGDRVTITCKASEDIYNRFAWYQQKPGNAPRLLISGAASLEAGVPSRFSGSGSGQDYTLSITSLQTEDVATYYCQQYWSTPWTFGGGTKLEIKRTVAAPSVFIFPPSDEQLKSGTASVVCLLNNFYPREAKVQWKVDNALQSGNSQESVTEQDSKDSTYSLSSTLTLSKADYEKHKVYACEVTHQGLSSPVTKSFNRGEC
5 |  |  | 0.14 nM | DVD573 (bispecific antibody, human IgG1, kappa, HC linker short, LC linker short; also called DVD-Ig DVD573) heavy: not shown light: DIVLTQSPDSLAVSLGERVTMNCKSSQSLLNSGMRKSFLAWYQQKPGQSPKLLIYWASTRESGVPDRFTGSGSGTDFTLTISSVQAEDVAVYYCKQSYHLFTFGSGTKLEIKRTVAAPDIQMTQSPSSLSASVGDRVTITCRASQDVSTAVAWYQQKPGKAPKLLIYSASFLYSGVPSRFSGSGSGTDFTLTISSLQPEDFATYYCQQSYTTPPTFGQGTKVEIKRTVAAPSVFIFPPSDEQLKSGTASVVCLLNNFYPREAKVQWKVDNALQSGNSQESVTEQDSKDSTYSLSSTLTLSKADYEKHKVYACEVTHQGLSSPVTKSFNRGEC
6 | 1.42 nM | 1.49 nM |  | DVD566 (bispecific antibody, human IgG1, kappa, HC linker short, LC linker long; also called DVD-Ig DVD566) heavy: not shown light: DIQMTQSPSSLSASVGDRVTITCSASQDISNYLNWYQQKPGKAPKVLIYFTSSLHSGVPSRFSGSGSGTDFTLTISSLQPEDFATYYCQQYSTVPWTFGQGTKVEIKRTVAAPSVFIFPPAIQMTQSSSSFSVSLGDRVTITCKASEDIYNRFAWYQQKPGNAPRLLISGAASLEAGVPSRFSGSGSGQDYTLSITSLQTEDVATYYCQQYWSTPWTFGGGTKLEIKRTVAAPSVFIFPPSDEQLKSGTASVVCLLNNFYPREAKVQWKVDNALQSGNSQESVTEQDSKDSTYSLSSTLTLSKADYEKHKVYACEVTHQGLSSPVTKSFNRGEC
7 | 13.8 nM | 2.35 nM |  | DVD544 (bispecific antibody, human IgG1, kappa, HC linker short, LC linker short; also called DVD-Ig DVD544) heavy: not shown light: DIQMTQSPSSLSASVGDRVTITCRASQDVSTAVAWYQQKPGKAPKLLIYSASFLYSGVPSRFSGSGSGTDFTLTISSLQPEDFATYYCQQSYTTPPTFGQGTKVEIKRTVAAPAIQMTQSSSSFSVSLGDRVTITCKASEDIYNRFAWYQQKPGNAPRLLISGAASLEAGVPSRFSGSGSGQDYTLSITSLQTEDVATYYCQQYWSTPWTFGGGTKLEIKRTVAAPSVFIFPPSDEQLKSGTASVVCLLNNFYPREAKVQWKVDNALQSGNSQESVTEQDSKDSTYSLSSTLTLSKADYEKHKVYACEVTHQGLSSPVTKSFNRGEC
8 | 2.53 nM | 3.12 nM |  | DVD560 (bispecific antibody, human IgG1, kappa, HC linker long, LC linker short; also called DVD-Ig DVD560) heavy: not shown light: DIQMTQSPSSLSASVGDRVTITCRASQDVSTAVAWYQQKPGKAPKLLIYSASFLYSGVPSRFSGSGSGTDFTLTISSLQPEDFATYYCQQSYTTPPTFGQGTKVEIKRTVAAPAIQMTQSSSSFSVSLGDRVTITCKASEDIYNRFAWYQQKPGNAPRLLISGAASLEAGVPSRFSGSGSGQDYTLSITSLQTEDVATYYCQQYWSTPWTFGGGTKLEIKRTVAAPSVFIFPPSDEQLKSGTASVVCLLNNFYPREAKVQWKVDNALQSGNSQESVTEQDSKDSTYSLSSTLTLSKADYEKHKVYACEVTHQGLSSPVTKSFNRGEC
9 |  |  | 340 nM | DVD567 (bispecific antibody, human IgG1, kappa, HC linker short, LC linker long; also called DVD-Ig DVD567) heavy: not shown light: AIQMTQSSSSFSVSLGDRVTITCKASEDIYNRFAWYQQKPGNAPRLLISGAASLEAGVPSRFSGSGSGQDYTLSITSLQTEDVATYYCQQYWSTPWTFGGGTKLEIKRTVAAPSVFIFPPDIQMTQSPSSLSASVGDRVTITCRASQDVSTAVAWYQQKPGKAPKLLIYSASFLYSGVPSRFSGSGSGTDFTLTISSLQPEDFATYYCQQSYTTPPTFGQGTKVEIKRTVAAPSVFIFPPSDEQLKSGTASVVCLLNNFYPREAKVQWKVDNALQSGNSQESVTEQDSKDSTYSLSSTLTLSKADYEKHKVYACEVTHQGLSSPVTKSFNRGEC
10 | 8.54 nM | 314 nM |  | DVD552 (bispecific antibody, human IgG1, kappa, HC linker long, LC linker long; also called DVD-Ig DVD552) heavy: not shown light: DIQMTQSPSSLSASVGDRVTITCRASQDVSTAVAWYQQKPGKAPKLLIYSASFLYSGVPSRFSGSGSGTDFTLTISSLQPEDFATYYCQQSYTTPPTFGQGTKVEIKRTVAAPSVFIFPPAIQMTQSSSSFSVSLGDRVTITCKASEDIYNRFAWYQQKPGNAPRLLISGAASLEAGVPSRFSGSGSGQDYTLSITSLQTEDVATYYCQQYWSTPWTFGGGTKLEIKRTVAAPSVFIFPPSDEQLKSGTASVVCLLNNFYPREAKVQWKVDNALQSGNSQESVTEQDSKDSTYSLSSTLTLSKADYEKHKVYACEVTHQGLSSPVTKSFNRGEC
11 | 2.84 nM | 3.14 nM |  | DVD568 (bispecific antibody, human IgG1, kappa, HC linker short, LC linker long; also called DVD-Ig DVD568) heavy: not shown light: DIQMTQSPSSLSASVGDRVTITCRASQDVSTAVAWYQQKPGKAPKLLIYSASFLYSGVPSRFSGSGSGTDFTLTISSLQPEDFATYYCQQSYTTPPTFGQGTKVEIKRTVAAPSVFIFPPAIQMTQSSSSFSVSLGDRVTITCKASEDIYNRFAWYQQKPGNAPRLLISGAASLEAGVPSRFSGSGSGQDYTLSITSLQTEDVATYYCQQYWSTPWTFGGGTKLEIKRTVAAPSVFIFPPSDEQLKSGTASVVCLLNNFYPREAKVQWKVDNALQSGNSQESVTEQDSKDSTYSLSSTLTLSKADYEKHKVYACEVTHQGLSSPVTKSFNRGEC
12 |  |  | 0.14 nM | DVD575 (bispecific antibody, human IgG1, kappa, outer AB047 (PlGF), inner AB071 (VEGF); HC linker short, LC linker short; also called DVD-Ig DVD575) heavy: not shown light: DIVLTQSPDSLAVSLGERVTMNCKSSQSLLNSGMRKSFLAWYQQKPGQSPKLLIYWASTRESGVPDRFTGSGSGTDFTLTISSVQAEDVAVYYCKQSYHLFTFGSGTKLEIKRTVAAPDIQMTQSPSSLSASVGDRVTITCRASQVIRRSLAWYQQKPGKAPKLLIYAASNLASGVPSRFSGSGSGTDFTLTISSLQPEDFATYYCQQSNTSPLTFGQGTKVEIKRTVAAPSVFIFPPSDEQLKSGTASVVCLLNNFYPREAKVQWKVDNALQSGNSQESVTEQDSKDSTYSLSSTLTLSKADYEKHKVYACEVTHQGLSSPVTKSFNRGEC
13 | 0.45 nM | 15.2 nM |  | DVD554 (bispecific antibody, human IgG1, kappa, outer AB071 (VEGF), inner AB074 (PlGF); HC linker long, LC linker long; also called DVD-Ig DVD554) heavy: not shown light: DIQMTQSPSSLSASVGDRVTITCRASQVIRRSLAWYQQKPGKAPKLLIYAASNLASGVPSRFSGSGSGTDFTLTISSLQPEDFATYYCQQSNTSPLTFGQGTKVEIKRTVAAPSVFIFPPAIQMTQSSSSFSVSLGDRVTITCKASEDIYNRFAWYQQKPGNAPRLLISGAASLEAGVPSRFSGSGSGQDYTLSITSLQTEDVATYYCQQYWSTPWTFGGGTKLEIKRTVAAPSVFIFPPSDEQLKSGTASVVCLLNNFYPREAKVQWKVDNALQSGNSQESVTEQDSKDSTYSLSSTLTLSKADYEKHKVYACEVTHQGLSSPVTKSFNRGEC
14 |  |  | 66300 nM | DVD553 (bispecific antibody, human IgG1, kappa, outer AB074 (PlGF), inner AB071 (VEGF); HC linker long, LC linker long; also called DVD-Ig DVD553) heavy: not shown light: AIQMTQSSSSFSVSLGDRVTITCKASEDIYNRFAWYQQKPGNAPRLLISGAASLEAGVPSRFSGSGSGQDYTLSITSLQTEDVATYYCQQYWSTPWTFGGGTKLEIKRTVAAPSVFIFPPDIQMTQSPSSLSASVGDRVTITCRASQVIRRSLAWYQQKPGKAPKLLIYAASNLASGVPSRFSGSGSGTDFTLTISSLQPEDFATYYCQQSNTSPLTFGQGTKVEIKRTVAAPSVFIFPPSDEQLKSGTASVVCLLNNFYPREAKVQWKVDNALQSGNSQESVTEQDSKDSTYSLSSTLTLSKADYEKHKVYACEVTHQGLSSPVTKSFNRGEC
15 |  |  | 88.5 nM | DVD569 (bispecific antibody, human IgG1, kappa, outer AB074 (PlGF), inner AB071 (VEGF); HC linker short, LC linker long; also called DVD-Ig DVD569) heavy: not shown light: AIQMTQSSSSFSVSLGDRVTITCKASEDIYNRFAWYQQKPGNAPRLLISGAASLEAGVPSRFSGSGSGQDYTLSITSLQTEDVATYYCQQYWSTPWTFGGGTKLEIKRTVAAPSVFIFPPDIQMTQSPSSLSASVGDRVTITCRASQVIRRSLAWYQQKPGKAPKLLIYAASNLASGVPSRFSGSGSGTDFTLTISSLQPEDFATYYCQQSNTSPLTFGQGTKVEIKRTVAAPSVFIFPPSDEQLKSGTASVVCLLNNFYPREAKVQWKVDNALQSGNSQESVTEQDSKDSTYSLSSTLTLSKADYEKHKVYACEVTHQGLSSPVTKSFNRGEC
